Experimental data: patent US20090170750A1 (Novo Nordisk, published 2009)
Bridges are numbered along the chain shown (N, C = ends). Where no end group is shown, it is not given here.

biological target: purified recombinant human insulin receptor-exon 11 (human) (UniProt P06213); test: competition with 125I-insulin (SPA)

| IR, binding relative to human insulin | Molecule |
| --- | --- |
| 54% | single-chain insulin with connecting peptide RGSSGK (SEQ ID NO:114), no PAK number printed (from UniProt P01308 25-53; P01308 90-110) (ligand) |
| 301% | single-chain insulin PAK 1864, connecting peptide TGLGSGK [B3K_A18Q_A21G] (from UniProt P01308 25-53; P01308 90-110) (ligand) |
| 89% | single-chain insulin PAK 1738, connecting peptide VGSSSGK [A18Q] (from UniProt P01308 25-53; P01308 90-110) (ligand) |

biological target: T1, purified recombinant human insulin receptor-exon 11 (human, UniProt P06213-2 28-1370, limits assumed); test: competition with 125I-insulin (SPA)
T1 construct: also called IR
Experimental: A total of 100 μl was then added and a dilution series is made from appropriate samples. To the dilution series was then added 100 μl of reagent mix and the samples were incubated for 16 hours while gently shaken. The phases were the then separated by centrifugation for 1 min and the plates counted in a Topcounter. The binding data were fitted using the nonlinear regression algorithm in the GraphPad Prism 2.01 (GraphPad Software, San Diego, Calif.).

| IR, binding relative to human insulin | Molecule |
| --- | --- |
| 38% | single-chain insulin PAK 1896, connecting peptide VGLSSGQ [B29A_A18Q_A22K] (ligand, disulfide 19-56, 42-47, 7-43) FVNQHLCGSHLVEALYLVCGERGFFYTPAVGLSSGQGIVEQCCTSICSLYQLEQYCNK |
| 36% | single-chain insulin PAK 1861, connecting peptide VGLGKGPGAGK [A18Q_A21G] (ligand) FVNQHLCGSHLVEALYLVCGERGFFYTPKVGLGKGPGAGKGIVEQCCTSICSLYQLEQYCG |
| 20% | B(1-29)-B27E-B29A-TGLGKGQ-A(1-21)-A18Q Human insulin (PAK1845) (ligand, disulfide 19-56, 42-47, 7-43) FVNQHLCGSHLVEALYLVCGERGFFYEPATGLGKGQGIVEQCCTSICSLYQLEQYCN |
| 60% | single-chain insulin PAK 1873, connecting peptide KGLSSGQ [B29A_A18Q] (ligand, disulfide 19-56, 42-47, 7-43) FVNQHLCGSHLVEALYLVCGERGFFYTPAKGLSSGQGIVEQCCTSICSLYQLEQYCN |
| 71% | B(1-29)-B29A-TGLGKGQ-A(1-21)-A18Q Human insulin (PAK1837) (ligand, disulfide 19-56, 42-47, 7-43) FVNQHLCGSHLVEALYLVCGERGFFYTPATGLGKGQGIVEQCCTSICSLYQLEQYCN |
| 143% | single-chain insulin PAK 1735, connecting peptide VGRSSGK [A21G] (ligand, disulfide 19-56, 42-47, 7-43) FVNQHLCGSHLVEALYLVCGERGFFYTPKVGRSSGKGIVEQCCTSICSLYQLENYCG |

biological target: human IGF-1 receptor (human) (UniProt P08069); test: competition with 125I-IGF-1 (SPA)

| Human IGF-1 receptor binding relative to human insulin | Human IGF-1 receptor binding | Molecule |
| --- | --- | --- |
| 0.1% | – | single-chain insulin PAK 1688011, connecting peptide VGLSSGK (from UniProt P01308 25-53; P01308 90-110) (ligand) |
| 0.5% | – | single-chain insulin with connecting peptide RGSSGK (SEQ ID NO:114), no PAK number printed (from UniProt P01308 25-53; P01308 90-110) (ligand) |
| 0.1% | – | single-chain insulin PAK 1638077, connecting peptide VGSSRGK (from UniProt P01308 25-53; P01308 90-110) (ligand) |
| 0.1% | – | single-chain insulin PAK 1687046, connecting peptide VGSMSGK (from UniProt P01308 25-53; P01308 90-110) (ligand) |
| 0.2% | – | single-chain insulin PAK 1688028, connecting peptide VGMSSGK (SEQ ID NO:106) (from UniProt P01308 25-53; P01308 90-110) (ligand) |
| – | 0.1% | single-chain insulin B(1-29)-TRSSNGR-A(1-21) (from UniProt P01308 25-53; P01308 90-110) (ligand) |
| 0.05% | – | single-chain insulin PAK 1766, connecting peptide VGSSSGK (from UniProt P01308 25-53; P01308 90-110) (ligand) |
| – | 0.05% | single-chain insulin B(1-29)-TRLSQGR-A(1-21) (from UniProt P01308 25-53; P01308 90-110) (ligand) |
| 0.2% | – | single-chain insulin PAK 1708, connecting peptide VGSRSGK (from UniProt P01308 25-53; P01308 90-110) (ligand) |
| 0.15% | – | single-chain insulin with connecting peptide VGHSSGK (SEQ ID NO:108), no PAK number printed (from UniProt P01308 25-53; P01308 90-110) (ligand) |
| 0.2% | – | single-chain insulin PAK 1688007, connecting peptide VGYSSGK (from UniProt P01308 25-53; P01308 90-110) (ligand) |
| 0.5% | – | single-chain insulin PAK 1709, connecting peptide VGRSSGK (SEQ ID NO:105) (from UniProt P01308 25-53; P01308 90-110) (ligand) |
| 0.2% | – | single-chain insulin PAK 1687033, connecting peptide VGSYSGK (from UniProt P01308 25-53; P01308 90-110) (ligand) |
